Assay [1] has as its target PfCCT MΔK^R681H, R681H point mutant of the second catalytic domain construct of Plasmodium falciparum CTP:phosphocholine cytidylyltransferase (528–795, Δ720–737) (Plasmodium falciparum). Briefly: native MS; native electrospray, QTOF, positive ion mode; 5 mM NH4HCO3 pH 7.2; gel filtered protein at 0.4 μM monomer concentration; source temperature 80°C; dimer to monomers; 3 samples from different expressions.

In assay [2] the target is PfCCT MΔK^WT, second catalytic domain construct of Plasmodium falciparum CTP:phosphocholine cytidylyltransferase (528–795, Δ720–737) (Plasmodium falciparum). The description is as above.

One may read the stoichiometry N as the number of molecules, sites or subunits per partner or assembly.

On to “PfCCT MΔK^R681H, R681H point mutant of the second catalytic domain construct of Plasmodium falciparum CTP:phosphocholine cytidylyltransferase (528–795, Δ720–737) (domain or fragment)”, for which, in assay [1], the fold decrease of the dimer:monomer abundance ratio against PfCCT MΔK^WT is 20 times lower. As to “PfCCT MΔK^WT, second catalytic domain construct of Plasmodium falciparum CTP:phosphocholine cytidylyltransferase (528–795, Δ720–737) (domain or fragment)”, the stoichiometry N in assay [2] came to 2.
